This data set deals with the molecule itself. The experiment in a line: SEC + other: negative stain transmission electron microscopy; Ni-purified His-tagged protein run over Superose 6 Increase HiScale (80 ml); void (high molecular weight) fractions visualised by negative stain TEM (2% uranyl acetate), 2D classes in cryoSPARC; self-assembly into capsid-like particles.

B1: recombinant mouse PNMA1, His-tagged (natural protein, UniProt Q8C1C8 1-353, looked up)
chain: MAMTLLEDWCRGMDVNSQRALLVWGIPVNCDETEIEETLQAAMPQVSYRVLGRMFWREENAKAALLELTGAVDYSLIPREMPGKGGLWKVVFKPPTSDAVFLERLHLFLAREGWTVQDVARVLGFQNPAPAPGPEMPAEMLNYILDNVIQPLVESIWYKKLTLFSGKDIPGPGEETFDSWLEHSNEIIEEWQVSDIEKRRRLMESLRGPAADVIRILKTNNAAITTAECLKALEQVFGSVESSRDAQVRFLNTYQNPGEKLSSYVIRLEPLLQKVVDKGVIDKDNVNQARLEQVIAGANHSGALRRQLWLAGAEEGPAPNLFQLLVQIREEEAKKEEEEAEAALLQLGLEGHF
notes: PNMA1, mouse, full-length Pnma1 cloned into the first cassette of a modified pET-Duet plasmid; The modified pET-Duet encodes a C-terminal 3C protease cut site followed by the His tag; no cleavage is described; source: E. coli LOBSTR (RIL plasmid), purified (Ni-Sepharose, Superose 6 size exclusion; void fractions collected); not shown: His tag, C-terminal, kept
As for B1, the binding result is “binds”.

B2: recombinant mouse PNMA4, His-tagged (natural protein, UniProt Q9ERH6 1-352, looked up)
chain: MTLRLLEDWCRGMDMNPRKALLVAGIPPTCGVADIEEALQAGLAPLGEHRLLGRMFRRDENKNVALIGLTVETGSALVPKEIPAKGGVWRVIFKPPDTDSDFLCRLNEFLKGEGMTMGELTRVLGNRNDPLGLDPGIMIPEIRAPMLAQALNEALKPTLQYLRYKKLSVFSGRDPPGPGEEEFESWMFHTSQVMKTWQVSDVEKRRRLIESLRGPAFEIIRVLKINNPFITVAECLKTLETIFGIIDNPRALQVKYLTTYQKTDEKLSAYVLRLEPLLQKLVQKGAIEKEVVNQARLDQVIAGAVHKSVRRELGLPEGSPAPGLLQLLTLIKDKEAEEEEVLLQAELEGYCT
notes: PNMA4 (also called MOAP-1 or MAP-1), mouse, full-length Pnma4 cloned into the first cassette of a modified pET-Duet plasmid; The modified pET-Duet encodes a C-terminal 3C protease cut site followed by the His tag; no cleavage is described; also called MOAP-1; MAP-1; source: E. coli LOBSTR (RIL plasmid), purified (Ni-Sepharose, Superose 6 size exclusion; void fractions collected); not shown: His …
For the protein B2, the binding result is listed as “binds”.
